The record followed here is article PMC4333415, “Structural insight into operator dre-sites recognition and effector binding in the GntR/HutC transcription regulator NagR” (Nucleic Acids Research, 2015).

Data set [1] deals with T1, NagR (YvoA) (Bacillus subtilis, UniProt O34817 1-243).
T1 sequence: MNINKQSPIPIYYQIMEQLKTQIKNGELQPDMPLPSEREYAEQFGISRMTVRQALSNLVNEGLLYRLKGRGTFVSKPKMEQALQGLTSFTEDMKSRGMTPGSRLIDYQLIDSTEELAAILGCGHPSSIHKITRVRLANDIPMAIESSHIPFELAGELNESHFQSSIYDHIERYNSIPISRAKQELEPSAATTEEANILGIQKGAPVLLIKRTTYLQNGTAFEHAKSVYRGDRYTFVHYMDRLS
The experiment in a line: SEC; 3 uM DNA; SPR: HBS-EP pH 7.4, 25 C, biotinylated DNA on SA chip; DNA for EMSA/SEC annealed in 20 mM Tris-HCl pH 7.5, 150 mM NaCl; crystal 4WWC: 0.1 M Bis-Tris pH 6.5, 25% PEG 3500, 292 K. The conditions noted are these: protein: recombinant; tags: pET15b template; chain copies: 2; 3' overhang 1 nt (T) on each strand; self-complementary, 2 copies. In general terms: SEC sorts molecules by how far they enter the pores of the column.

The target in data set [2] is T2, NagR-DBD (Bacillus subtilis, UniProt O34817 1-75).
T2 sequence: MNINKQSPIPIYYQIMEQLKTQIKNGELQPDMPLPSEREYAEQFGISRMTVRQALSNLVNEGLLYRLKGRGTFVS
The data set is described as above. The conditions noted are these: protein: recombinant; tags: N-terminal His6 with thrombin site (pET15b); chain copies: 2; 3' overhang 1 nt (T) on each strand; self-complementary, 2 copies.

For data set [3], the target named is T1, NagR (YvoA). The experiment in a line: SPR; 1:1 steady state; SPR: HBS-EP pH 7.4, 25 C, biotinylated DNA on SA chip; DNA for EMSA/SEC annealed in 20 mM Tris-HCl pH 7.5, 150 mM NaCl; crystal 4WWC: 0.1 M Bis-Tris pH 6.5, 25% PEG 3500, 292 K. The conditions noted are these: protein: recombinant, tags: pET15b template, chain copies: 2, label: 5'-biotin on strand 1, blunt. Background: Surface plasmon resonance follows binding to a sensor surface in real time, without labels.

Data set [4] deals with the molecule itself. The data set is described as follows: crystal structure; full-length NagR co-crystallised with 10 mM GlcN-6-P or GlcNAc-6-P; sitting drop, 292 K; isomorphous crystals, space group R32:H; one homodimer in the asymmetric unit.
Data set [5] addresses T2, NagR-DBD. The data set is described as follows: SPR; SPR: HBS-EP pH 7.4, 25 C, biotinylated DNA on SA chip; DNA for EMSA/SEC annealed in 20 mM Tris-HCl pH 7.5, 150 mM NaCl; crystal 4WWC: 0.1 M Bis-Tris pH 6.5, 25% PEG 3500, 292 K. The conditions noted are these: protein: recombinant; tags: N-terminal His6 with thrombin site (pET15b); chain copies: 2; label: 5'-biotin on strand 1; blunt; one T:C mismatch as printed at position 3 of strand 1 (possible misprint).

In data set [6] the target is T2, NagR-DBD. The data set is described as follows: SPR; KD1 of two-step model, steady state; SPR: HBS-EP pH 7.4, 25 C, biotinylated DNA on SA chip; DNA for EMSA/SEC annealed in 20 mM Tris-HCl pH 7.5, 150 mM NaCl; crystal 4WWC: 0.1 M Bis-Tris pH 6.5, 25% PEG 3500, 292 K. The conditions noted are these: protein: recombinant; tags: N-terminal His6 with thrombin site (pET15b); chain copies: 2; label: 5'-biotin on strand 1; blunt.

Data set [7] deals with T1, NagR (YvoA). The data set is described as follows: SPR; kinetic 1:1 fit; SPR: HBS-EP pH 7.4, 25 C, biotinylated DNA on SA chip; DNA for EMSA/SEC annealed in 20 mM Tris-HCl pH 7.5, 150 mM NaCl; crystal 4WWC: 0.1 M Bis-Tris pH 6.5, 25% PEG 3500, 292 K. The conditions noted are these: protein: recombinant; tags: pET15b template; chain copies: 2; label: 5'-biotin on strand 1; blunt.

Data set [8] concerns the target T1, NagR (YvoA). The data set is described as follows: X-ray crystallography; effector-free; 2.9 A; SPR: HBS-EP pH 7.4, 25 C, biotinylated DNA on SA chip; DNA for EMSA/SEC annealed in 20 mM Tris-HCl pH 7.5, 150 mM NaCl; crystal 4WWC: 0.1 M Bis-Tris pH 6.5, 25% PEG 3500, 292 K. The following applies: protein: recombinant; tags: pET15b template; chain copies: 2; 3' overhang 1 nt (G) on each strand; self-complementary, 2 copies. In general terms: In EMSA bound probe runs differently from free probe, usually more slowly.

Data set [9] addresses T2, NagR-DBD. The data set is described as follows: SPR; 1:1 steady state; SPR: HBS-EP pH 7.4, 25 C, biotinylated DNA on SA chip; DNA for EMSA/SEC annealed in 20 mM Tris-HCl pH 7.5, 150 mM NaCl; crystal 4WWC: 0.1 M Bis-Tris pH 6.5, 25% PEG 3500, 292 K. The following applies: protein: recombinant; tags: N-terminal His6 with thrombin site (pET15b); chain copies: 2; label: 5'-biotin on strand 1; blunt.

The target of data set [10] is T2, NagR-DBD. The experiment in a line: EMSA; 2 uM DNA; higher oligomers by bridging of fragments; SPR: HBS-EP pH 7.4, 25 C, biotinylated DNA on SA chip; DNA for EMSA/SEC annealed in 20 mM Tris-HCl pH 7.5, 150 mM NaCl; crystal 4WWC: 0.1 M Bis-Tris pH 6.5, 25% PEG 3500, 292 K. The conditions noted are these: protein: recombinant; tags: N-terminal His6 with thrombin site (pET15b); chain copies: 2; 3' overhang 1 nt (T) on each strand; self-complementary, 2 copies.

B1: 15mer palindromic dsDNA (dsDNA)
DNA 1: GTGGTCTAGACCACT
DNA 2: GTGGTCTAGACCACT
Take B1: the binding result with NagR (YvoA) [1] and with NagR-DBD [2] was “binds” in each case.

B2: 26mer control dsDNA (derived from nagA gene) (dsDNA)
DNA 1: GCAGAGAGTCTTCTTATTAAAGACAT
DNA 2: ATGTCTTTAATAAGAAGACTCTCTGC
With B2, the Kd (as a rule, the concentration at which binding is half-saturated) with NagR (YvoA) [3] came out at 127 ± 4.2 nM.

B3: NagR (full-length, wild-type) from Bacillus subtilis (natural protein, UniProt O34817 1-243, looked up)
chain: T1 sequence
notes: NagR (formerly YvoA), GntR/HutC family transcription repressor of Bacillus subtilis, full length; The nagR gene stood in a pET15b vector; also called YvoA; full-length NagR
With B3, the stoichiometry N (as a rule, a count of units in the complex or per binding partner) in data set [4] stood at 2.

B4: 26mer control dsDNA (random design) (dsDNA)
DNA 1: AATCATTTATGGCATAGGCAACAAGT
DNA 2: ACTTGTTGCCTATGCCATAAATGCTT
In the case of B4, in the data set with NagR-DBD [5], the binding result is “no binding”. Besides, the Kd with NagR (YvoA) [3] (one T:C mismatch as printed at position 3 of strand 1 (possible misprint)) stood at 306 ± 6.3 nM.

B5: 26mer palindromic dsDNA (dsDNA)
DNA 1: GCTCAGGTGGTCTAGACCACTAGTCT
DNA 2: AGACTAGTGGTCTAGACCACCTGAGC
With B5, the Kd came out at 14.5 ± 3.3 nM with NagR-DBD [6] and 0.0279 ± 0.0067 nM with NagR (YvoA) [7].

B6: 19mer palindromic dsDNA (dsDNA)
DNA 1: CAGTGGTCTAGACCACTGG
DNA 2: CAGTGGTCTAGACCACTGG
Consider B6, for which the binding result with NagR (YvoA) [8] was “binds”.

B7: 26mer native nagAB dsDNA (dsDNA)
DNA 1: GCTCAGCTGGTCTAGATCACTAGTCT
DNA 2: AGACTAGTGATCTAGACCAGCTGAGC
B7: the values for the Kd in the data set with NagR (YvoA) [7] and in the data set with NagR-DBD [9] were 0.0192 ± 0.0151 nM and 122 ± 7.6 nM, respectively.

B8: 15mer palindromic dsDNA (shifted motif) (dsDNA)
DNA 1: GACCACATGTGGTCT
DNA 2: GACCACATGTGGTCT
Consider B8, for which, in the data set with NagR-DBD [10], the binding result is listed as “binds”.
